From publication PMC12197871 come the findings set out here.

Substrate in data set [1]: CC(=O)C(=O)O
Description: purified protein, by the assay type. The note with it: pH 6.5.

Substrate in data set [2]: CC(=O)C(=O)O
Description: purified protein, by the assay type. Type of data set: biochemical. The note with it: pH 6.5.

B1: WT GsLDH (Geobacillus stearothermophilus) (protein)
chain: MKNNGGARVVVIGAGFVGASYVFALMNQGIADEIVLIDANESKAIGDAMDFNHGKVFAPKPVDIWHGDYDDCRDADLVVICAGANQKPGETRLDLVDKNIAIFRSIVESVMASGFQGLFLVATNPVDILTYATWKFSGLPHERVIGSGTILDTARFRFLLGEYFSVAPQNVHAYIIGEHGDTELPVWSQAYIGVMPIRKLVESKGEEAQKDLERIFVNVRDAAYQIIEKKGATYYGIAMGLARVTRAILHNENAILTVSAYLDGLYGERDVYIGVPAVINRNGIREVIEIELNDDEKNRFHHSAATLKSVLARAFTR
Consider B1, for which the K0.5 in data set [1] is on record as 2.8 ± 0.4 mM.

B2: Gln189Leu (Geobacillus stearothermophilus; Q189L) (protein)
chain: MKNNGGARVVVIGAGFVGASYVFALMNQGIADEIVLIDANESKAIGDAMDFNHGKVFAPKPVDIWHGDYDDCRDADLVVICAGANQKPGETRLDLVDKNIAIFRSIVESVMASGFQGLFLVATNPVDILTYATWKFSGLPHERVIGSGTILDTARFRFLLGEYFSVAPQNVHAYIIGEHGDTELPVWSLAYIGVMPIRKLVESKGEEAQKDLERIFVNVRDAAYQIIEKKGATYYGIAMGLARVTRAILHNENAILTVSAYLDGLYGERDVYIGVPAVINRNGIREVIEIELNDDEKNRFHHSAATLKSVLARAFTR
As a reminder, the kcat is the maximal rate divided by the concentration of active sites. Turning to B2, in data set [2], the K0.5 was 2.3 ± 0.2 mM and the kcat was determined as 73 ± 12 s⁻¹.

B3: Triple mutant (Geobacillus stearothermophilus; N293S/Q189L/R104C) (protein)
chain: MKNNGGARVVVIGAGFVGASYVFALMNQGIADEIVLIDANESKAIGDAMDFNHGKVFAPKPVDIWHGDYDDCRDADLVVICAGANQKPGETRLDLVDKNIAIFCSIVESVMASGFQGLFLVATNPVDILTYATWKFSGLPHERVIGSGTILDTARFRFLLGEYFSVAPQNVHAYIIGEHGDTELPVWSLAYIGVMPIRKLVESKGEEAQKDLERIFVNVRDAAYQIIEKKGATYYGIAMGLARVTRAILHNENAILTVSAYLDGLYGERDVYIGVPAVINRNGIREVIEIELSDDEKNRFHHSAATLKSVLARAFTR
On to B3, for which, in data set [2], the K0.5 was 0.41 ± 0.09 mM and the kcat amounted to 57 ± 8 s⁻¹.
